# Non-standard residues stand in square brackets, D forms with d. No end group written: not given here. pGlu = O=C1CC[C@@H](C(=O)O)N1
# T1: human Aβ pE3-18 peptide, pEFRHDSGYEVHHQKLV (human)
# T1 construct: The range 3-18 counts on the Aβ peptide; also called pE3-Aβ18; pE3-Aβ peptide
# T1 peptide: [pGlu]FRHDSGYEVHHQKLV
# Biological target: T1, human Aβ pE3-18 peptide, …
# Test: SPR, 1:1 Langmuir fit
# Procedure: First a polyclonal α-human antibody was coupled to an SPR-Chip subsequent loaded with the humanized antibody until the Response Unit was more than 1000.
# Kinetic measurement was performed at different concentrations (of 5 to 1000 nM) of AβpE3-18-peptide. The graphs of the measured series are shown as an overlay plot with the sensorgrams, corrected by the sensogram measuring the running buffer, aligned at the time of injection and the baseline adjusted to zero before injection. The results are evaluated according to a simple 1:1 interaction model (Langmuir fit), which promote the koff and kₒₙ rate constants.
Kd,koff,kon,Molecule
15.5 nM,0.00415 s⁻¹,267000 M⁻¹ s⁻¹,"humanized antibody clone #6 sequence variant VH: SEQ ID NO: 27, VL: SEQ ID NO: 15 (antibody, human IgG1, V domains shown) VH: QVQLVQSGAEVKKSGASVKVSCKASGYSFTGHTMNWVRQAPGQGLEWMGLINPSNGVTRYNQKFQGRVTITRDTSTTTVHMELTSLTSEDTATYYCTREAKREWDETYWGQGTLVTVSS VL: DVVMTQSPLSLPVTLGQPASISCKSSQSLLHSDGKTYLNWFQQRPGQSPRRLTYLVSKLDSGVPDRFSGSGSGTDFTLKISRVEAEDVGVYYCVQGTHFPFTFGGGTKVEIK"
8.43 nM,0.00357 s⁻¹,423000 M⁻¹ s⁻¹,"humanized antibody clone #6 sequence variant VH: SEQ ID NO: 70, VL: SEQ ID NO: 14 (antibody, human IgG1, V domains shown) VH: QVQLVQSGAEVKKSGASVKVSCKASGYSFTGHTMNWVRQAPGQGLEWMGLINPSNEVTRYNQKFQGRVTITRDTSTTTVHMELTSLTSEDTATYYCTREAKREWDETYWGQGTLVTVSS VL: DVVMTQSPLSLPVTLGQPASISCKSSQSLLYSDGKTYLNWFQQRPGQSPRRLTYLVSKLDSGVPDRFSGSGSGTDFTLKISRVEAEDVGVYYCVQGTHFPFTFGGGTKVEIK"

# The next lines start with the molecule.
Molecule,Kd,koff,kon
"humanized antibody clone #6 sequence variant VH: SEQ ID NO: 27, VL: SEQ ID NO: 14 (antibody, human IgG1, V domains shown) VH: QVQLVQSGAEVKKSGASVKVSCKASGYSFTGHTMNWVRQAPGQGLEWMGLINPSNGVTRYNQKFQGRVTITRDTSTTTVHMELTSLTSEDTATYYCTREAKREWDETYWGQGTLVTVSS VL: DVVMTQSPLSLPVTLGQPASISCKSSQSLLYSDGKTYLNWFQQRPGQSPRRLTYLVSKLDSGVPDRFSGSGSGTDFTLKISRVEAEDVGVYYCVQGTHFPFTFGGGTKVEIK",5.09 nM,0.00323 s⁻¹,635000 M⁻¹ s⁻¹
"humanized antibody clone #6 sequence variant VH: SEQ ID NO: 24, VL: SEQ ID NO: 14 (antibody, human IgG1, V domains shown) VH: QVQLVQSGAEVKKSGASVKVSCKASGYSFTGHTMNWVRQAPGQGLEWMGLINPSNGVTRYNQKFQGRVTITRDTSTTTVHMELTSLTSEDTAVYYCTREAKREWDETYWGQGTLVTVSS VL: DVVMTQSPLSLPVTLGQPASISCKSSQSLLYSDGKTYLNWFQQRPGQSPRRLTYLVSKLDSGVPDRFSGSGSGTDFTLKISRVEAEDVGVYYCVQGTHFPFTFGGGTKVEIK",9.36 nM,0.00576 s⁻¹,616000 M⁻¹ s⁻¹
"humanized antibody clone #6 sequence variant VH: SEQ ID NO: 27, VL: SEQ ID NO: 13 (antibody, human IgG1, V domains shown) VH: QVQLVQSGAEVKKSGASVKVSCKASGYSFTGHTMNWVRQAPGQGLEWMGLINPSNGVTRYNQKFQGRVTITRDTSTTTVHMELTSLTSEDTATYYCTREAKREWDETYWGQGTLVTVSS VL: DVVMTQSPLSLPVTLGQPASISCKSSQSLLYSDGKTYLNWFQQRPGQSPRRLAYLVSKLDSGVPDRFSGSGSGTDFTLKISRVEAEDVGVYYCVQGTHFPFTFGGGTKVEIK",7.35 nM,0.00413 s⁻¹,562000 M⁻¹ s⁻¹

# Biological target: full length human CD32A on CHO cells (human) (UniProt P12318)
# Test: FACS on CHO cells stably expressing full length human CD32A, bound antibody detected with fluorochrome-conjugated anti-Fab'
# full length human CD32A on CHO cells (human), sequence (P12318 34-317): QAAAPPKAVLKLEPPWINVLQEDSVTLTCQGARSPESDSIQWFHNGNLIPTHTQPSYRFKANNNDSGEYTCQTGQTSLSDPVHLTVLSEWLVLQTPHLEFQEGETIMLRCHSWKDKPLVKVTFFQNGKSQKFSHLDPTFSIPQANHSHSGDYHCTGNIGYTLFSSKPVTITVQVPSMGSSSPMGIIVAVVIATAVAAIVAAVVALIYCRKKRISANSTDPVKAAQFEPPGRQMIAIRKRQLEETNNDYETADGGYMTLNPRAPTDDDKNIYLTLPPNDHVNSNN
row,Molecule,EC50 (read off the curve)
1,antibody comprising the K324A mutant variant of the human IgG1 Fc region (SEQ ID NO: 74),100 nM
2,antibody comprising the human IgG1 Fc wild-type region of SEQ ID NO: 73,100 nM
